According to patent US20200270325A1 (Merck Sharp & Dohme, published 2020):
Numbered stars: 1 amine (or outer) side, 2 acyl side, 3 side chain; on linkers, the order of the positions; unused ones are H or OH. Square brackets hold non-standard residues; d marks the D form. Primed or numbered codes have the meaning given here. Side chains are listed from the residue outwards. Ends that are not written are not given here. * marks the point of attachment. Phe(4-CH2NH2) = NCc1ccc(C[C@H](N)C(=O)O)cc1; C18 diacid = O=C(O)CCCCCCCCCCCCCCCCC(=O)*; C16 diacid = O=C(O)CCCCCCCCCCCCCCC(=O)*; γGlu = O=C(O)[C@H](CCC(=O)[*:2])N[*:1]; Met(O2) = CS(=O)(=O)CC[C@H](N)C(=O)O; αMeD = C[C@](N)(CC(=O)O)C(=O)O; αMeS = C[C@](N)(CO)C(=O)O; PEG2′ = not defined here; AEEA = NCCOCCOCC(=O)O; Aib = CC(C)(N)C(=O)O

B1: TP615 (peptide)
peptide: H[αMeS]QGTFTSDYSKYLDARAAQK([AEEA-AEEA-γGlu-C16 diacid])FVQWL[Met(O2)][αMeD]T-NH2
modifications: N-terminus assumed
SMILES: CC(C)C[C@H](NC(=O)[C@H](Cc1ccc(O)cc1)NC(=O)[C@H](CCCCN)NC(=O)[C@H](CO)NC(=O)[C@H](Cc1ccc(O)cc1)NC(=O)[C@H](CC(=O)O)NC(=O)[C@H](CO)NC(=O)[C@@H](NC(=O)[C@H](Cc1ccccc1)NC(=O)[C@@H](NC(=O)CNC(=O)[C@H](CCC(N)=O)NC(=O)[C@](C)(CO)NC(=O)[C@@H](N)Cc1c[nH]cn1)[C@@H](C)O)[C@@H](C)O)C(=O)N[C@@H](CC(=O)O)C(=O)N[C@@H](C)C(=O)N[C@@H](CCCNC(=N)N)C(=O)N[C@@H](C)C(=O)N[C@@H](C)C(=O)N[C@@H](CCC(N)=O)C(=O)N[C@@H](CCCCNC(=O)COCCOCCNC(=O)COCCOCCNC(=O)CC[C@H](NC(=O)CCCCCCCCCCCCCCC(=O)O)C(=O)O)C(=O)N[C@@H](Cc1ccccc1)C(=O)N[C@H](C(=O)N[C@@H](CCC(N)=O)C(=O)N[C@@H](Cc1c[nH]c2ccccc12)C(=O)N[C@@H](CC(C)C)C(=O)N[C@@H](CCS(C)(=O)=O)C(=O)N[C@@](C)(CC(=O)O)C(=O)N[C@H](C(N)=O)[C@@H](C)O)C(C)C
B2: TP622 (peptide)
peptide: H[Aib]QGTFTSD[Phe(4-CH2NH2)]([AEEA-γGlu-C16 diacid])SKYLDARAAQDFVQWL[Met(O2)]DT-NH2
modifications: N-terminus assumed
SMILES: CC(C)C[C@H](NC(=O)[C@H](Cc1ccc(O)cc1)NC(=O)[C@H](CCCCN)NC(=O)[C@H](CO)NC(=O)[C@H](Cc1ccc(CNC(=O)COCCOCCNC(=O)CC[C@H](NC(=O)CCCCCCCCCCCCCCC(=O)O)C(=O)O)cc1)NC(=O)[C@H](CC(=O)O)NC(=O)[C@H](CO)NC(=O)[C@@H](NC(=O)[C@H](Cc1ccccc1)NC(=O)[C@@H](NC(=O)CNC(=O)[C@H](CCC(N)=O)NC(=O)C(C)(C)NC(=O)[C@@H](N)Cc1c[nH]cn1)[C@@H](C)O)[C@@H](C)O)C(=O)N[C@@H](CC(=O)O)C(=O)N[C@@H](C)C(=O)N[C@@H](CCCNC(=N)N)C(=O)N[C@@H](C)C(=O)N[C@@H](C)C(=O)N[C@@H](CCC(N)=O)C(=O)N[C@@H](CC(=O)O)C(=O)N[C@@H](Cc1ccccc1)C(=O)N[C@H](C(=O)N[C@@H](CCC(N)=O)C(=O)N[C@@H](Cc1c[nH]c2ccccc12)C(=O)N[C@@H](CC(C)C)C(=O)N[C@@H](CCS(C)(=O)=O)C(=O)N[C@@H](CC(=O)O)C(=O)N[C@H](C(N)=O)[C@@H](C)O)C(C)C
B3: TP621 (peptide)
peptide: H[αMeS]QGTFTSDYSKYLD[Aib]RAAQK([AEEA-AEEA-γGlu-C18 diacid])FVQWL[Met(O2)][αMeD]T-NH2
modifications: N-terminus assumed
SMILES: CC(C)C[C@H](NC(=O)[C@H](Cc1ccc(O)cc1)NC(=O)[C@H](CCCCN)NC(=O)[C@H](CO)NC(=O)[C@H](Cc1ccc(O)cc1)NC(=O)[C@H](CC(=O)O)NC(=O)[C@H](CO)NC(=O)[C@@H](NC(=O)[C@H](Cc1ccccc1)NC(=O)[C@@H](NC(=O)CNC(=O)[C@H](CCC(N)=O)NC(=O)[C@](C)(CO)NC(=O)[C@@H](N)Cc1c[nH]cn1)[C@@H](C)O)[C@@H](C)O)C(=O)N[C@@H](CC(=O)O)C(=O)NC(C)(C)C(=O)N[C@@H](CCCNC(=N)N)C(=O)N[C@@H](C)C(=O)N[C@@H](C)C(=O)N[C@@H](CCC(N)=O)C(=O)N[C@@H](CCCCNC(=O)COCCOCCNC(=O)COCCOCCNC(=O)CC[C@H](NC(=O)CCCCCCCCCCCCCCCCC(=O)O)C(=O)O)C(=O)N[C@@H](Cc1ccccc1)C(=O)N[C@H](C(=O)N[C@@H](CCC(N)=O)C(=O)N[C@@H](Cc1c[nH]c2ccccc12)C(=O)N[C@@H](CC(C)C)C(=O)N[C@@H](CCS(C)(=O)=O)C(=O)N[C@@](C)(CC(=O)O)C(=O)N[C@H](C(N)=O)[C@@H](C)O)C(C)C
B4: TP620 (peptide)
peptide: H[αMeS]QGTFTSDYSKYLD[Aib]RAAK([AEEA-AEEA-γGlu-C18 diacid])DFVQWL[Met(O2)][αMeD]T-NH2
modifications: N-terminus assumed
SMILES: CC(C)C[C@H](NC(=O)[C@H](Cc1ccc(O)cc1)NC(=O)[C@H](CCCCN)NC(=O)[C@H](CO)NC(=O)[C@H](Cc1ccc(O)cc1)NC(=O)[C@H](CC(=O)O)NC(=O)[C@H](CO)NC(=O)[C@@H](NC(=O)[C@H](Cc1ccccc1)NC(=O)[C@@H](NC(=O)CNC(=O)[C@H](CCC(N)=O)NC(=O)[C@](C)(CO)NC(=O)[C@@H](N)Cc1c[nH]cn1)[C@@H](C)O)[C@@H](C)O)C(=O)N[C@@H](CC(=O)O)C(=O)NC(C)(C)C(=O)N[C@@H](CCCNC(=N)N)C(=O)N[C@@H](C)C(=O)N[C@@H](C)C(=O)N[C@@H](CCCCNC(=O)COCCOCCNC(=O)COCCOCCNC(=O)CC[C@H](NC(=O)CCCCCCCCCCCCCCCCC(=O)O)C(=O)O)C(=O)N[C@@H](CC(=O)O)C(=O)N[C@@H](Cc1ccccc1)C(=O)N[C@H](C(=O)N[C@@H](CCC(N)=O)C(=O)N[C@@H](Cc1c[nH]c2ccccc12)C(=O)N[C@@H](CC(C)C)C(=O)N[C@@H](CCS(C)(=O)=O)C(=O)N[C@@](C)(CC(=O)O)C(=O)N[C@H](C(N)=O)[C@@H](C)O)C(C)C
B5: TP616 (peptide)
peptide: H[αMeS]QGTFTSDYSKYLDARAAK([AEEA-AEEA-γGlu-C18 diacid])DFVQWL[Met(O2)][αMeD]T-NH2
modifications: N-terminus assumed
SMILES: CC(C)C[C@H](NC(=O)[C@H](Cc1ccc(O)cc1)NC(=O)[C@H](CCCCN)NC(=O)[C@H](CO)NC(=O)[C@H](Cc1ccc(O)cc1)NC(=O)[C@H](CC(=O)O)NC(=O)[C@H](CO)NC(=O)[C@@H](NC(=O)[C@H](Cc1ccccc1)NC(=O)[C@@H](NC(=O)CNC(=O)[C@H](CCC(N)=O)NC(=O)[C@](C)(CO)NC(=O)[C@@H](N)Cc1c[nH]cn1)[C@@H](C)O)[C@@H](C)O)C(=O)N[C@@H](CC(=O)O)C(=O)N[C@@H](C)C(=O)N[C@@H](CCCNC(=N)N)C(=O)N[C@@H](C)C(=O)N[C@@H](C)C(=O)N[C@@H](CCCCNC(=O)COCCOCCNC(=O)COCCOCCNC(=O)CC[C@H](NC(=O)CCCCCCCCCCCCCCCCC(=O)O)C(=O)O)C(=O)N[C@@H](CC(=O)O)C(=O)N[C@@H](Cc1ccccc1)C(=O)N[C@H](C(=O)N[C@@H](CCC(N)=O)C(=O)N[C@@H](Cc1c[nH]c2ccccc12)C(=O)N[C@@H](CC(C)C)C(=O)N[C@@H](CCS(C)(=O)=O)C(=O)N[C@@](C)(CC(=O)O)C(=O)N[C@H](C(N)=O)[C@@H](C)O)C(C)C
B6: TP617 (peptide)
peptide: H[αMeS]QGTFTSDYSKYLDARAAQK([AEEA-AEEA-γGlu-C18 diacid])FVQWL[Met(O2)][αMeD]T-NH2
modifications: N-terminus assumed
SMILES: CC(C)C[C@H](NC(=O)[C@H](Cc1ccc(O)cc1)NC(=O)[C@H](CCCCN)NC(=O)[C@H](CO)NC(=O)[C@H](Cc1ccc(O)cc1)NC(=O)[C@H](CC(=O)O)NC(=O)[C@H](CO)NC(=O)[C@@H](NC(=O)[C@H](Cc1ccccc1)NC(=O)[C@@H](NC(=O)CNC(=O)[C@H](CCC(N)=O)NC(=O)[C@](C)(CO)NC(=O)[C@@H](N)Cc1c[nH]cn1)[C@@H](C)O)[C@@H](C)O)C(=O)N[C@@H](CC(=O)O)C(=O)N[C@@H](C)C(=O)N[C@@H](CCCNC(=N)N)C(=O)N[C@@H](C)C(=O)N[C@@H](C)C(=O)N[C@@H](CCC(N)=O)C(=O)N[C@@H](CCCCNC(=O)COCCOCCNC(=O)COCCOCCNC(=O)CC[C@H](NC(=O)CCCCCCCCCCCCCCCCC(=O)O)C(=O)O)C(=O)N[C@@H](Cc1ccccc1)C(=O)N[C@H](C(=O)N[C@@H](CCC(N)=O)C(=O)N[C@@H](Cc1c[nH]c2ccccc12)C(=O)N[C@@H](CC(C)C)C(=O)N[C@@H](CCS(C)(=O)=O)C(=O)N[C@@](C)(CC(=O)O)C(=O)N[C@H](C(N)=O)[C@@H](C)O)C(C)C
B7: TP618 (peptide)
peptide: H[αMeS]QGTFTSDYSKYLD[Aib]RAAK([AEEA-AEEA-γGlu-C16 diacid])DFVQWL[Met(O2)][αMeD]T-NH2
modifications: N-terminus assumed
SMILES: CC(C)C[C@H](NC(=O)[C@H](Cc1ccc(O)cc1)NC(=O)[C@H](CCCCN)NC(=O)[C@H](CO)NC(=O)[C@H](Cc1ccc(O)cc1)NC(=O)[C@H](CC(=O)O)NC(=O)[C@H](CO)NC(=O)[C@@H](NC(=O)[C@H](Cc1ccccc1)NC(=O)[C@@H](NC(=O)CNC(=O)[C@H](CCC(N)=O)NC(=O)[C@](C)(CO)NC(=O)[C@@H](N)Cc1c[nH]cn1)[C@@H](C)O)[C@@H](C)O)C(=O)N[C@@H](CC(=O)O)C(=O)NC(C)(C)C(=O)N[C@@H](CCCNC(=N)N)C(=O)N[C@@H](C)C(=O)N[C@@H](C)C(=O)N[C@@H](CCCCNC(=O)COCCOCCNC(=O)COCCOCCNC(=O)CC[C@H](NC(=O)CCCCCCCCCCCCCCC(=O)O)C(=O)O)C(=O)N[C@@H](CC(=O)O)C(=O)N[C@@H](Cc1ccccc1)C(=O)N[C@H](C(=O)N[C@@H](CCC(N)=O)C(=O)N[C@@H](Cc1c[nH]c2ccccc12)C(=O)N[C@@H](CC(C)C)C(=O)N[C@@H](CCS(C)(=O)=O)C(=O)N[C@@](C)(CC(=O)O)C(=O)N[C@H](C(N)=O)[C@@H](C)O)C(C)C

Legend:
[1] = target: human Glucagon receptor (GCGR) (human, UniProt P47871 26-477); test: cell-based or functional assay
Sequence of human Glucagon receptor (GCGR) (P47871 26-477): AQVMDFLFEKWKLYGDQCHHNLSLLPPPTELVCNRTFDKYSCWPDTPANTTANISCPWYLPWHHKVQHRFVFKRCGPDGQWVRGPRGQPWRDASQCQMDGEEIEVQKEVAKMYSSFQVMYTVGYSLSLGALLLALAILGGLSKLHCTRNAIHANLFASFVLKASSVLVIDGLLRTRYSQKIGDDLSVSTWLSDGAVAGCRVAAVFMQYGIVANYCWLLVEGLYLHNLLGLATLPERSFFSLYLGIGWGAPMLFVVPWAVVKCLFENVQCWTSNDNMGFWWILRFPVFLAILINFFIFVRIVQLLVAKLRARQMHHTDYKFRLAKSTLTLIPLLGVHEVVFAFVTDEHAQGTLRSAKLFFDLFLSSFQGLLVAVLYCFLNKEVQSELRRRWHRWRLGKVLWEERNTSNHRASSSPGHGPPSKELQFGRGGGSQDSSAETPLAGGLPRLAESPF

[2] = target: human GLP-1 receptor (GLP1R) (human, UniProt P43220 24-463); test: cell-based or functional assay

Row | Binder | GCGR EC50 human [1] [nM] | GLP1R EC50 human [2] [nM]
1 | B1 | 0.26 | 0.4
2 | B2 | 0.03 | 0.09
3 | B3 | 0.25 | 1.94
4 | H[αMS]QGTFTSDYSKYLD[Aib]RAAQK([PEG2′-PEG2′-γGlu-C16 diacid])FVQWL[Met(O2)][αMD]T-NH2 [TP619] | 0.05 | 0.38
5 | B4 | 1.26 | 8.58
6 | B5 | 1.39 | 1.96
7 | B6 | 0.56 | 0.76
8 | B7 | 0.36 | 2.48
